Blank lines part the entries; values can stand above or below the binder they belong to.
Legend:
[1] = target: T1, human NMI (N-myc Interacting protein), recombinant protein (human, UniProt Q13287 1-307, limits assumed); test: ELISA EC50 against parent B-8
T1 construct: Gene ID: 9111; also called hNMI; antigen
T1 sequence (looked up): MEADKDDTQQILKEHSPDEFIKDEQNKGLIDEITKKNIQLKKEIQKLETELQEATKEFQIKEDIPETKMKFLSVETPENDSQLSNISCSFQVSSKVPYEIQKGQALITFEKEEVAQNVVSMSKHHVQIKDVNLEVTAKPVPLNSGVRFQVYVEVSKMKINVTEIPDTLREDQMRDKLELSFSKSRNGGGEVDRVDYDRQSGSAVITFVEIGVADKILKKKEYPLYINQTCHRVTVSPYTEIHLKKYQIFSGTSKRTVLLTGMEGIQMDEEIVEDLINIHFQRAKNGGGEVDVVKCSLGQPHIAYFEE

[2] = target: T1, human NMI (N-myc Interacting protein), …; test: ELISA, binding to hNMI
[3] = target: T1, human NMI (N-myc Interacting protein), …; test: ELISA EC50 against parent B-8; remark: listed apart in the source
[4] = target: T1, human NMI (N-myc Interacting protein), …; test: ELISA EC50 against parent 98G10
[5] = target: T1, human NMI (N-myc Interacting protein), …; test: ELISA EC50 against parent 39B4

Fold decrease in affinity [1]: > 100 fold
B1: B-8 mutant G106K (VH) (antibody, V domains shown)
VH: QSLEESGGDLVKPGASLTLTCTASGFSFSSSYYMCWVRQAPGKGLEWIACIYAGSSGSTYYASWAKGRFTISKTSSTTVTLQMTSLTAADTATYFCAREYSYDDYKDFWGFNLWGPGTLVTVSS
VL: ALVMTQTPSSVSAAVGGTVTINCQASQNIYTNLAWYQQKPGQPPKLLIYGASNLESGVPSRFKGSGSGTEYTLTISDLECDDAATYYCQSSLYSRIADRANAFGGGTEVVVK

Fold decrease in affinity [1]: > 500 fold
B2: B-8 mutant S101K (VH) (antibody, V domains shown)
VH: QSLEESGGDLVKPGASLTLTCTASGFSFSSSYYMCWVRQAPGKGLEWIACIYAGSSGSTYYASWAKGRFTISKTSSTTVTLQMTSLTAADTATYFCAREYKYDDYGDFWGFNLWGPGTLVTVSS
VL: ALVMTQTPSSVSAAVGGTVTINCQASQNIYTNLAWYQQKPGQPPKLLIYGASNLESGVPSRFKGSGSGTEYTLTISDLECDDAATYYCQSSLYSRIADRANAFGGGTEVVVK

EC50 [2]: 0.698 nM
Fold decrease in affinity [3]: 2.26 fold
B3: B-8-1 (antibody, V domains shown)
VH: QSLEESGGDLVKPGASLTLTCTASGFSFSSSYYMCWVRQAPGKGLEWIACIYAGSSGSTYYASWAKGRFTISKTSSTTVTLQMTSLTAADTATYFCAREYSYDDYGDFWGFNLWGPGTLVTVSS
VL: ALVMTQTPSSVSAAVGGTVTINCQASQNIYTNLAWYQQKPGQPPKLLIYGASNLESGVPSRFKGSGSGTEYTLTISDLECDDAATYYCQSSLESRIADRANAFGGGTEVVVK
notes: also called B-8 Y93E (VL)

EC50 [2]: 0.238 nM
Fold decrease in affinity [3]: 0.77 fold
B4: B-8-5 (antibody, V domains shown)
VH: QSLEESGGDLVKPGASLTLTCTASGFSFSSSYYMCWVRQAPGKGLEWIACIYAGSSGSTYYASWAKGRFTISKTSSTTVTLQMTSLTAADTATYFCAREYSYDDYGDFWGANLWGPGTLVTVSS
VL: ALVMTQTPSSVSAAVGGTVTINCQASQNIYTNLAWYQQKPGQPPKLLIYGASNLESGVPSRFKGSGSGTEYTLTISDLECDDAATYYCQSSLYSRIADRANAFGGGTEVVVK
notes: also called B-8 F111A (VH)

EC50 [2]: 0.177 nM
Fold decrease in affinity [3]: 0.57 fold
B5: B-8-4 (antibody, V domains shown)
VH: QSLEESGGDLVKPGASLTLTCTASGFSFSSSYYMCWVRQAPGKGLEWIACIYAGSSGSTYEASWAKGRFTISKTSSTTVTLQMTSLTAADTATYFCAREYSYDDYGDFWGFNLWGPGTLVTVSS
VL: ALVMTQTPSSVSAAVGGTVTINCQASQNIYTNLAWYQQKPGQPPKLLIYGASNLESGVPSRFKGSGSGTEYTLTISDLECDDAATYYCQSSLYSRIADRANAFGGGTEVVVK
notes: also called B-8 Y61E (VH)

EC50 [2]: 1.45 nM
Fold decrease in affinity [3]: 4.68 fold
B6: B-8-2 (antibody, V domains shown)
VH: QSLEESGGDLVKPGASLTLTCTASGFSFSSSYYMCWVRQAPGKGLEWIACIYAGSSGSTYYASWAKGRFTISKTSSTTVTLQMTSLTAADTATYFCAREYSYDDYGDFWGFNLWGPGTLVTVSS
VL: ALVMTQTPSSVSAAVGGTVTINCQASQNIYTNLAWYQQKPGQPPKLLIYGASNLESGVPSRFKGSGSGTEYTLTISDLECDDAATYYCQSRLYSRIADRANAFGGGTEVVVK
notes: also called B-8 S91R (VL)

EC50 [2]: 0.176 nM
Fold decrease in affinity [3]: 0.57 fold
B7: B-8-3 (antibody, V domains shown)
VH: QSLEESGGDLVKPGASLTLTCTASGFSFSSSYEMCWVRQAPGKGLEWIACIYAGSSGSTYYASWAKGRFTISKTSSTTVTLQMTSLTAADTATYFCAREYSYDDYGDFWGFNLWGPGTLVTVSS
VL: ALVMTQTPSSVSAAVGGTVTINCQASQNIYTNLAWYQQKPGQPPKLLIYGASNLESGVPSRFKGSGSGTEYTLTISDLECDDAATYYCQSSLYSRIADRANAFGGGTEVVVK
notes: also called B-8 Y33E (VH)

Fold decrease in affinity [4]: > 500 fold
B8: 98G10 mutant S56N (VH) (antibody, V domains shown)
VH: QEQLEESGGDLVKPEGSLTLTCTASGFSFSASYWICWVRQAPGKGLEWIACIYGGNSGSAYYASWAKGRFTISKTSSTTVTLQMTSLTAADTATYFCARAGYYNYGSAGDIYPSSFKLWGPGTLVTVSS
VL: DIVMTQTPASVEAAVGGTVTINCQASQSISTALAWYQQKPGQPPKLLIYTASKVASGVPSRFSGSGSGTQFTLTISDLECADAATYYCQNYYYSSSSITFGGGTEVVVK

Fold decrease in affinity [4]: > 500 fold
B9: 98G10 mutant S57Q (VH) (antibody, V domains shown)
VH: QEQLEESGGDLVKPEGSLTLTCTASGFSFSASYWICWVRQAPGKGLEWIACIYGGSQGSAYYASWAKGRFTISKTSSTTVTLQMTSLTAADTATYFCARAGYYNYGSAGDIYPSSFKLWGPGTLVTVSS
VL: DIVMTQTPASVEAAVGGTVTINCQASQSISTALAWYQQKPGQPPKLLIYTASKVASGVPSRFSGSGSGTQFTLTISDLECADAATYYCQNYYYSSSSITFGGGTEVVVK

Fold decrease in affinity [5]: > 500 fold
B10: 39B4 mutant Y102F (VH) (antibody, V domains shown)
VH: QEQLVESGGGLVQPEGSLTLTCTASGFSFSSSYWICWVRQAPGKGLEWIACIYAGTSGSTYYASWAKGRFTISKTSSTTVDLQMNSLTAADTATYFCARAGFYTYGAGVYIYPSSFKLWGPGTLVTVSS
VL: DVVMTQTPASVEAAVGGTVTIKCQASESIGNALAWYQQKPGQPPKLLIYSASNLASGVPSRFSGSGSGTQFTLTISDLECADAATYYCQSYYYSSSSITFGGGTEVVVK

Fold decrease in affinity [4]: > 500 fold
B11: 98G10 mutant S56P (VH) (antibody, V domains shown)
VH: QEQLEESGGDLVKPEGSLTLTCTASGFSFSASYWICWVRQAPGKGLEWIACIYGGPSGSAYYASWAKGRFTISKTSSTTVTLQMTSLTAADTATYFCARAGYYNYGSAGDIYPSSFKLWGPGTLVTVSS
VL: DIVMTQTPASVEAAVGGTVTINCQASQSISTALAWYQQKPGQPPKLLIYTASKVASGVPSRFSGSGSGTQFTLTISDLECADAATYYCQNYYYSSSSITFGGGTEVVVK

Fold decrease in affinity [4]: > 500 fold
B12: 98G10 mutant S57R (VH) (antibody, V domains shown)
VH: QEQLEESGGDLVKPEGSLTLTCTASGFSFSASYWICWVRQAPGKGLEWIACIYGGSRGSAYYASWAKGRFTISKTSSTTVTLQMTSLTAADTATYFCARAGYYNYGSAGDIYPSSFKLWGPGTLVTVSS
VL: DIVMTQTPASVEAAVGGTVTINCQASQSISTALAWYQQKPGQPPKLLIYTASKVASGVPSRFSGSGSGTQFTLTISDLECADAATYYCQNYYYSSSSITFGGGTEVVVK

Fold decrease in affinity [5]: > 500 fold
B13: 39B4 mutant A107Q (VH) (antibody, V domains shown)
VH: QEQLVESGGGLVQPEGSLTLTCTASGFSFSSSYWICWVRQAPGKGLEWIACIYAGTSGSTYYASWAKGRFTISKTSSTTVDLQMNSLTAADTATYFCARAGYYTYGQGVYIYPSSFKLWGPGTLVTVSS
VL: DVVMTQTPASVEAAVGGTVTIKCQASESIGNALAWYQQKPGQPPKLLIYSASNLASGVPSRFSGSGSGTQFTLTISDLECADAATYYCQSYYYSSSSITFGGGTEVVVK

Fold decrease in affinity [5]: > 500 fold
B14: 39B4 mutant G106Y (VH) (antibody, V domains shown)
VH: QEQLVESGGGLVQPEGSLTLTCTASGFSFSSSYWICWVRQAPGKGLEWIACIYAGTSGSTYYASWAKGRFTISKTSSTTVDLQMNSLTAADTATYFCARAGYYTYYAGVYIYPSSFKLWGPGTLVTVSS
VL: DVVMTQTPASVEAAVGGTVTIKCQASESIGNALAWYQQKPGQPPKLLIYSASNLASGVPSRFSGSGSGTQFTLTISDLECADAATYYCQSYYYSSSSITFGGGTEVVVK

Fold decrease in affinity [5]: > 500 fold
B15: 39B4 mutant V109K (VH) (antibody, V domains shown)
VH: QEQLVESGGGLVQPEGSLTLTCTASGFSFSSSYWICWVRQAPGKGLEWIACIYAGTSGSTYYASWAKGRFTISKTSSTTVDLQMNSLTAADTATYFCARAGYYTYGAGKYIYPSSFKLWGPGTLVTVSS
VL: DVVMTQTPASVEAAVGGTVTIKCQASESIGNALAWYQQKPGQPPKLLIYSASNLASGVPSRFSGSGSGTQFTLTISDLECADAATYYCQSYYYSSSSITFGGGTEVVVK

Fold decrease in affinity [4]: > 500 fold
B16: 98G10 mutant S57K (VH) (antibody, V domains shown)
VH: QEQLEESGGDLVKPEGSLTLTCTASGFSFSASYWICWVRQAPGKGLEWIACIYGGSKGSAYYASWAKGRFTISKTSSTTVTLQMTSLTAADTATYFCARAGYYNYGSAGDIYPSSFKLWGPGTLVTVSS
VL: DIVMTQTPASVEAAVGGTVTINCQASQSISTALAWYQQKPGQPPKLLIYTASKVASGVPSRFSGSGSGTQFTLTISDLECADAATYYCQNYYYSSSSITFGGGTEVVVK

Fold decrease in affinity [5]: > 500 fold
B17: 39B4 mutant V109Q (VH) (antibody, V domains shown)
VH: QEQLVESGGGLVQPEGSLTLTCTASGFSFSSSYWICWVRQAPGKGLEWIACIYAGTSGSTYYASWAKGRFTISKTSSTTVDLQMNSLTAADTATYFCARAGYYTYGAGQYIYPSSFKLWGPGTLVTVSS
VL: DVVMTQTPASVEAAVGGTVTIKCQASESIGNALAWYQQKPGQPPKLLIYSASNLASGVPSRFSGSGSGTQFTLTISDLECADAATYYCQSYYYSSSSITFGGGTEVVVK

Fold decrease in affinity [5]: > 500 fold
B18: 39B4 mutant A107R (VH) (antibody, V domains shown)
VH: QEQLVESGGGLVQPEGSLTLTCTASGFSFSSSYWICWVRQAPGKGLEWIACIYAGTSGSTYYASWAKGRFTISKTSSTTVDLQMNSLTAADTATYFCARAGYYTYGRGVYIYPSSFKLWGPGTLVTVSS
VL: DVVMTQTPASVEAAVGGTVTIKCQASESIGNALAWYQQKPGQPPKLLIYSASNLASGVPSRFSGSGSGTQFTLTISDLECADAATYYCQSYYYSSSSITFGGGTEVVVK

Fold decrease in affinity [5]: > 500 fold
B19: 39B4 mutant G106R (VH) (antibody, V domains shown)
VH: QEQLVESGGGLVQPEGSLTLTCTASGFSFSSSYWICWVRQAPGKGLEWIACIYAGTSGSTYYASWAKGRFTISKTSSTTVDLQMNSLTAADTATYFCARAGYYTYRAGVYIYPSSFKLWGPGTLVTVSS
VL: DVVMTQTPASVEAAVGGTVTIKCQASESIGNALAWYQQKPGQPPKLLIYSASNLASGVPSRFSGSGSGTQFTLTISDLECADAATYYCQSYYYSSSSITFGGGTEVVVK
